The data set deals with Escherichia coli TOP10. As to the kind of experiment: shrunken log2 fold change of peptide-encoding DNA abundance (4.5 h post-induction vs induction); higher = less antimicrobial activity (less host growth inhibition). Conditions: time post-induction: 4.5 h; library: site-saturation at positions 5, 18, 19, 20.
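Also: peptides expressed intracellularly from a pBAD plasmid library in pooled LB shake-flask culture, induced with 0.3% L-arabinose, DNA abundance read by NGS, three biological replicates, DESeq2 with apeglm shrinkage.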

For the sequence RRIRYRPPRLPRPRPRPKAPPRP, the “shrunken log2 fold change” value came out at 0.291.
For the sequence RRIRQRPPRLPRPRPRPPNYPRP, the “shrunken log2 fold change” value came out at 0.195.
In the case of RRIRTRPPRLPRPRPRPFRWPRP, the “shrunken log2 fold change” value was determined as 0.24.
The result for RRIRFRPPRLPRPRPRPDHVPRP reads 0.0266; that for RRIRERPPRLPRPRPRPSMNPRP, -0.573.
As for RRIRERPPRLPRPRPRPTAKPRP, the figure is 0.0302; as for RRIRFRPPRLPRPRPRPWGGPRP, 0.162.
As for RRIRFRPPRLPRPRPRPCEYPRP, the figure is -0.000476; as for RRIRRRPPRLPRPRPRPQKEPRP, 0.00366; as for RRIRQRPPRLPRPRPRPRNIPRP, -0.0833.
With RRIRERPPRLPRPRPRPMIYPRP, the “shrunken log2 fold change” value was -0.12.
As for RRIRPRPPRLPRPRPRPLEVPRP, the figure is -0.007; as for RRIRWRPPRLPRPRPRPSNGPRP, -0.19; as for RRIRVRPPRLPRPRPRPPWTPRP, 0.223.
As for RRIRTRPPRLPRPRPRPDHQPRP, the figure is -0.0261; as for RRIRLRPPRLPRPRPRPMVCPRP, -0.0634.
The result for RRIRYRPPRLPRPRPRPFSQPRP reads 0.0654; that for RRIRIRPPRLPRPRPRPAPTPRP, 0.219; that for RRIRPRPPRLPRPRPRPWASPRP, 0.0361.
In the case of RRIRIRPPRLPRPRPRPWPIPRP, the “shrunken log2 fold change” value was -0.0934.
As for RRIRTRPPRLPRPRPRPYNTPRP, the figure is -0.737; as for RRIRKRPPRLPRPRPRPPRFPRP, 0.733.
The result for RRIRHRPPRLPRPRPRPKCWPRP reads 0.123.
The result for RRIRMRPPRLPRPRPRPIHAPRP reads -0.0962.
As to RRIRTRPPRLPRPRPRPMPDPRP, the “shrunken log2 fold change” value is -0.0705.
As for RRIRCRPPRLPRPRPRPPVIPRP, the figure is -0.0627; as for RRIRDRPPRLPRPRPRPMEDPRP, -0.0288.
For the sequence RRIRGRPPRLPRPRPRPRAHPRP, the “shrunken log2 fold change” value stood at 0.857.
For the sequence RRIRNRPPRLPRPRPRPPDHPRP, the “shrunken log2 fold change” value stood at 0.0887.
The result for RRIRNRPPRLPRPRPRPDLWPRP reads 0.551; that for RRIRWRPPRLPRPRPRPEPNPRP, 1.23; that for RRIRKRPPRLPRPRPRPAATPRP, 0.838.
Take RRIRQRPPRLPRPRPRPKDAPRP: the “shrunken log2 fold change” value stood at 0.0166.
Turning to RRIRLRPPRLPRPRPRPMWSPRP, the “shrunken log2 fold change” value was -0.0258.
With RRIRPRPPRLPRPRPRPFPFPRP, the “shrunken log2 fold change” value is -0.00615.
Consider RRIRCRPPRLPRPRPRPQACPRP, for which the “shrunken log2 fold change” value came out at 0.00494.
As for RRIRSRPPRLPRPRPRPRQVPRP, the figure is 0.109; as for RRIRLRPPRLPRPRPRPWFNPRP, -0.388.
As for RRIRHRPPRLPRPRPRPHDDPRP, the figure is -0.0997; as for RRIRYRPPRLPRPRPRPVHDPRP, -0.372; as for RRIRRRPPRLPRPRPRPCGNPRP, 0.0466.
As for RRIRWRPPRLPRPRPRPDCQPRP, the figure is -0.00822; as for RRIRVRPPRLPRPRPRPIVVPRP, -0.129; as for RRIRQRPPRLPRPRPRPTIFPRP, -0.0347.
In the case of RRIRERPPRLPRPRPRPCYNPRP, the “shrunken log2 fold change” value was -0.137.
The result for RRIRIRPPRLPRPRPRPEWTPRP reads -0.0261.
RRIRVRPPRLPRPRPRPFAFPRP: the “shrunken log2 fold change” value was -0.38.
The result for RRIRDRPPRLPRPRPRPAFKPRP reads 0.0611.
As for RRIRVRPPRLPRPRPRPYGRPRP, the figure is -0.0856; as for RRIRGRPPRLPRPRPRPCKHPRP, 0.112; as for RRIRIRPPRLPRPRPRPVVMPRP, -0.0043.
The result for RRIRDRPPRLPRPRPRPMIYPRP reads -0.0383; that for RRIRVRPPRLPRPRPRPAVTPRP, -0.269; that for RRIRSRPPRLPRPRPRPKFTPRP, -0.436.
For RRIRRRPPRLPRPRPRPYKAPRP, the “shrunken log2 fold change” value was -0.108.
As for RRIRYRPPRLPRPRPRPLWRPRP, the figure is 0.0545; as for RRIRIRPPRLPRPRPRPPPSPRP, 0.399.
The result for RRIRLRPPRLPRPRPRPSAIPRP reads -0.189; that for RRIRTRPPRLPRPRPRPPNYPRP, -0.101; that for RRIRARPPRLPRPRPRPQLMPRP, 0.125.
The result for RRIRMRPPRLPRPRPRPGADPRP reads 2.39; that for RRIRARPPRLPRPRPRPEYWPRP, 0.515.
Turning to RRIRVRPPRLPRPRPRPPPTPRP, the “shrunken log2 fold change” value is 0.933.

(Values after the supplement of paper PMC9112550, “Optimization of the antimicrobial peptide Bac7 by deep mutational scanning” (BMC Biology, 2022).)
